Test results reported in patent US20260158064A1 (NANJING PROBIO BIOTECH, published 2026).

Tests used:
[1] = target: human ROR1 expressed on CHO cells (CHO-K1/Human ROR1 stable cells) (human) (UniProt Q01973); experiment: flow cytometry, 10 ug/ml antibody on Human ROR1-CHO-K1 cells (curve 1), fluorescent secondary antibody
[2] = target: mouse ROR1 expressed on CHO cells (CHO-K1/Mouse ROR1 stable cells) (mouse) (UniProt Q9Z139); experiment: flow cytometry, 10 ug/ml antibody on Mouse ROR1-CHO-K1 cells (curve 2), fluorescent secondary antibody
Sequence of mouse ROR1 expressed on CHO cells (CHO-K1/Mouse ROR1 stable cells) (mouse) (Q9Z139 30-937): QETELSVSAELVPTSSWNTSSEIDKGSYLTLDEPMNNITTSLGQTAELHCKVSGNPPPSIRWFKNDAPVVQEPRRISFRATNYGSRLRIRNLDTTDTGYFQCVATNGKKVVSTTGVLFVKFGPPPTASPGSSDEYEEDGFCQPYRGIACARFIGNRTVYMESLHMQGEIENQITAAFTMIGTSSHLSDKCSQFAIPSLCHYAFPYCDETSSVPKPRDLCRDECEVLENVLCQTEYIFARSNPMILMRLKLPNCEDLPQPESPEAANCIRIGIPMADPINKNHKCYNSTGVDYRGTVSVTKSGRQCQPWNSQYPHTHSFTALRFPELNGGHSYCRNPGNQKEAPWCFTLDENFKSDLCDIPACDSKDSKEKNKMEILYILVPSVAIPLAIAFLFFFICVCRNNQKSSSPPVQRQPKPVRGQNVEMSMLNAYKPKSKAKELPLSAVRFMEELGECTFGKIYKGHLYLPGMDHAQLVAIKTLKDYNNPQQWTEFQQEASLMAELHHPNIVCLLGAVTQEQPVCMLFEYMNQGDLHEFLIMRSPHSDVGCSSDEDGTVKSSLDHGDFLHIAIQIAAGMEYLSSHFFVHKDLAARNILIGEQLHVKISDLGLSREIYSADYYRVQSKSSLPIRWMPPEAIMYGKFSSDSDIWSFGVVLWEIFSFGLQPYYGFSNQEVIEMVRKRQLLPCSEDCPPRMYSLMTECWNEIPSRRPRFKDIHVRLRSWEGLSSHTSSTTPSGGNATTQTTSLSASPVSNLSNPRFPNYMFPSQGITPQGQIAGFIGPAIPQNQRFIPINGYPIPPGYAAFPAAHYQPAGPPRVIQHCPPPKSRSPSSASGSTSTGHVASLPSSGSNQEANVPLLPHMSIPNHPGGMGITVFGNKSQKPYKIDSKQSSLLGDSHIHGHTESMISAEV

[3] = target: human ROR1 expressed on CHO cells (CHO-K1/Human ROR1 stable cells) (human) (UniProt Q01973); experiment: flow cytometry, 10 ug/ml on Human ROR1-CHO-K1 cells (curve 1), fluorescent secondary antibody
[4] = target: mouse ROR1 expressed on CHO cells (CHO-K1/Mouse ROR1 stable cells) (mouse) (UniProt Q9Z139); experiment: flow cytometry, 10 ug/ml on Mouse ROR1-CHO-K1 cells (curve 2), fluorescent secondary antibody
[5] = target: human ROR1 expressed on CHO cells (CHO-K1/Human ROR1 stable cells) (human) (UniProt Q01973); experiment: flow cytometry, 10 ug/ml on Human ROR1-CHO-K1 cells (curve 1), fluorescent secondary antibody; remark: listed apart in the source
[6] = target: mouse ROR1 expressed on CHO cells (CHO-K1/Mouse ROR1 stable cells) (mouse) (UniProt Q9Z139); experiment: flow cytometry, 10 ug/ml on Mouse ROR1-CHO-K1 cells (curve 2), fluorescent secondary antibody; remark: listed apart in the source
[7] = target: human ROR1 Kringle-His domain protein (amino acid sequence at positions 308-395, Acrobiosystems, RO1-H5223) (human) (UniProt Q01973); experiment: indirect ELISA, antigen coated at 1 ug/ml
Sequence of human ROR1 Kringle-His domain protein (amino acid sequence at positions 308-395, Acrobiosystems, RO1-H5223) (human) (Q01973 308-395 limits assumed, form in doubt): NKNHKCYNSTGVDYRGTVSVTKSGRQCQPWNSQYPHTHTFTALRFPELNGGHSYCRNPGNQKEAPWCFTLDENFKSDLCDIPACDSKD

[8] = target: human ROR1-His protein (fused with a His protein tag, Acrobiosystems, RO1-H522y) (human) (UniProt Q01973); experiment: indirect ELISA, antigen coated at 1 ug/ml
Sequence of human ROR1-His protein (fused with a His protein tag, Acrobiosystems, RO1-H522y) (human) (Q01973 30-403 limits assumed): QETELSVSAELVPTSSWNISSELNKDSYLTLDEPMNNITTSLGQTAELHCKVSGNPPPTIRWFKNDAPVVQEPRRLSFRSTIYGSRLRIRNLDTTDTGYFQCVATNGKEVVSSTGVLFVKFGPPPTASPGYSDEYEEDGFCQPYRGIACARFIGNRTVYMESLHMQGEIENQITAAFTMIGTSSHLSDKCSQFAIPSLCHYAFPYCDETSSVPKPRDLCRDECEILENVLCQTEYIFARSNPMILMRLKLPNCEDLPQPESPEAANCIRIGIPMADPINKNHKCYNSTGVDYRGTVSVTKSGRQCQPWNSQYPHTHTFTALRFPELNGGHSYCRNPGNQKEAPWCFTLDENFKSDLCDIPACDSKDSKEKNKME

[9] = target: human ROR1 expressed on the engineered cell line CHO-K1/ROR1 (human) (UniProt Q01973); experiment: flow cytometry of CHO-K1_ROR1 cells stained with the PE-labelled antibody; the ROR1- gate prints 0.75
[10] = target: human ROR1 expressed on the engineered cell line CHO-K1/ROR1 (human) (UniProt Q01973); experiment: flow cytometry of CHO-K1_ROR1 cells stained with the PE-labelled antibody; the CHO-K1 row of the same box prints 20.8
[11] = target: T1, human ROR1-His protein (fused with a His protein tag, Acrobiosystems, RO1-H522y) (human, UniProt Q01973 30-403); experiment: indirect ELISA, antigen coated at 1 ug/ml
T1 construct: also called recombinant human ROR1-His protein; not shown: His tag
T1 sequence (Q01973 30-403 limits assumed): as above
Experimental: (§1) Indirect ELISA was used to assess the binding capability of the above purified antibodies to human ROR1-related recombinant proteins. ELISA plates (Nunc) were coated with 1 μg/ml of human ROR1-His protein, human ROR1 Frizzled-His domain protein, and human ROR1 Kringle-His domain protein in 100 μl/well of CBS overnight at 4° C. The plates were washed with PBS-T (0.05% Tween) and blocked with 300 μl/well of PBS containing 3% skim milk at 37° C. for 1 hour. Subsequently, the blocking solution was discarded, and 100 μl of purified antibody at 8 μg/ml (about 100 nM) was added to the first well and diluted according to a 3-fold gradient to obtain a total of 11 test concentration gradients. The plates were then incubated for 1 hour at room temperature. The plates were washed 3 times with PBST and incubated with 100 μl/well of horseradish peroxidase-conjugated mouse anti-human IgG Fc fragment (GenScript) for 0.5 hours at 37° C. The plates were washed five times with PBST, a TMB chromogenic solution (GenScript) was then added, and the plates were incubated for 15 minutes at room temperature in the dark. The reaction was stopped by adding 50 μl of 1 M HCl stop solution (Sigma). The plates were read at 450 nm using a microplate reader. FIGS. 1-3 show the results of the ELISA experiment on the binding of 8 positive recombinant antibody clones to ROR1-related antigen proteins, and the EC₅₀ for each antibody is as shown in Table 2 below: the antigen binding capacity of the antibodies tested was all equal to or higher than that of the positive reference antibody R11-scFv.

[12] = target: T2, mouse ROR1 expressed on CHO cells (CHO-K1/Mouse ROR1 stable cells) (mouse, UniProt Q9Z139 30-937); experiment: flow cytometry, antibody at 10 ug/ml on CHO cells
T2 construct: whole, on cells
T2 sequence (Q9Z139 30-937): as the sequence (Q9Z139 30-937) above
Experimental: CHO cells expressing human and mouse ROR1 and parental cells as the negative control for detection were collected and washed 3 times with PBS. 2.5×10⁵ test cells and 100 μl of purified antibody at 10 μg/ml were added to a 96-well plate, and the plate was incubated at 4° C. for 1 hour. The cells were then washed 3 times with PBS, 100 μl of iFluor-labeled goat anti-human IgG, an Fcγ-specific fragment antibody, was added, and the plate was incubated at 4° C. for 45 minutes. Finally, the cells were washed 3 times with PBS, and the signals were read using FACS BD Calibur.

[13] = target: human ROR1 Frizzled-His domain protein (amino acid sequence at positions 165-305, Acrobiosystems, RO1-H5222) (human) (UniProt Q01973); experiment: indirect ELISA, plate coated with human ROR1 Frizzled-His, HRP anti-human IgG Fc, OD450
Sequence of human ROR1 Frizzled-His domain protein (amino acid sequence at positions 165-305, Acrobiosystems, RO1-H5222) (human) (Q01973 165-305 limits assumed, form in doubt): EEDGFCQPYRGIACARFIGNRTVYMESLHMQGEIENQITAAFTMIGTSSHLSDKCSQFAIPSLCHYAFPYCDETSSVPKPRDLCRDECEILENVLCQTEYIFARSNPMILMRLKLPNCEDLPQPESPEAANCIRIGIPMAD

[14] = target: T3, human ROR1 Kringle-His domain protein (amino acid sequence at positions 308-395, Acrobiosystems, RO1-H5223) (human, UniProt Q01973 308-395); experiment: indirect ELISA, antigen coated at 1 ug/ml
T3 construct: also called Human ROR1 Kringle-His protein; recombinant human ROR1 Kringle-His protein; not shown: His tag
T3 sequence (Q01973 308-395 limits assumed, form in doubt): as the sequence (Q01973 308-395 limits assumed, form in doubt) above
Experimental: as §1

Sequence of human ROR1 expressed on CHO cells (CHO-K1/Human ROR1 stable cells) (human) (Q01973 30-937): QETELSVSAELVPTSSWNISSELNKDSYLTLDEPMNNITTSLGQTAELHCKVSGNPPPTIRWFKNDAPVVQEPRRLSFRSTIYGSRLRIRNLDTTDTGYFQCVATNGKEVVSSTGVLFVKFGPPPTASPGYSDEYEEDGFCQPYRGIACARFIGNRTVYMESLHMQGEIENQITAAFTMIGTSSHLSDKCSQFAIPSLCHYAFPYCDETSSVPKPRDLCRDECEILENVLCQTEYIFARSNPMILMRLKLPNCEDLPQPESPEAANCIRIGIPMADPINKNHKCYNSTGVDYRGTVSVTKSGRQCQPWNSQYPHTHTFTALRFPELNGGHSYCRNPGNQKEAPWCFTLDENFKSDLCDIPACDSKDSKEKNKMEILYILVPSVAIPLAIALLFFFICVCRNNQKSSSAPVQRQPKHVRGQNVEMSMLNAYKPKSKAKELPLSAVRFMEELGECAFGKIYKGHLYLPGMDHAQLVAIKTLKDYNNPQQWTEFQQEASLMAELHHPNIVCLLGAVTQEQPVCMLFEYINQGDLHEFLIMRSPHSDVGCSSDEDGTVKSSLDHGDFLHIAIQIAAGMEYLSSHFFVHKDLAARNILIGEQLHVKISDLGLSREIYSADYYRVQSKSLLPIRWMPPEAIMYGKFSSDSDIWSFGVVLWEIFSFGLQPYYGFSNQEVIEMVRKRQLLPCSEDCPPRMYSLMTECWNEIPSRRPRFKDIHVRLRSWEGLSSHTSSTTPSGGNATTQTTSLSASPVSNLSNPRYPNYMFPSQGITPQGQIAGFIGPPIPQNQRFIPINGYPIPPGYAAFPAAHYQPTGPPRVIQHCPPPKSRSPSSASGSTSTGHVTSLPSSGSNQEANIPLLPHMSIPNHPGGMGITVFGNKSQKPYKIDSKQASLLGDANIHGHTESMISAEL

A Geometric Mean : Alexa Fluor 647-H [1] of 69000 and a Geometric Mean : Alexa Fluor 647-H [2] of 32600 were found for Positive Ab- Cirmtuzumab (antibody) in this work.

A Geometric Mean : Alexa Fluor 647-H [3] of 137, a Geometric Mean : Alexa Fluor 647-H [4] of 93.3 and a Geometric Mean : Alexa Fluor 647-H [5] of 286 were found for Human IgG (antibody) in this work. It also gave a Geometric Mean : Alexa Fluor 647-H [6] of 135.

An EC50 [7] of 1.17 µg/mL and an EC50 [8] of 0.104 µg/mL were found for Positive reference antibody R11-scFv in this work.

An ROR1+ gate, percent of cells [9] of 99.2 and a Median : PE-H [10] of 13100 were found for “PE anti-human ROR1 Antibody (BioLegend, Cat #357804)” in this work.

B1: single domain antibody AHP15768 (Fc fusion)
chain: QVQLVESGGGSVQAGGSLRLSCAVSGRSISLYNMGWFRQAPGKEREFVSAINWSGGRTYYADSVKGRFTISRNNAKNTMYLQMNSLKPEDTATYYCAVDVEGWFRVSGDAAGYDYWGQGTQVTVSS
notes: VHH expressed from pcDNA3.4-Fc (HuIgG1); not shown: human IgG1 Fc of the pcDNA3.4-Fc (HuIgG1) expression vector
For B1, the EC50 [11] was 0.0203 µg/mL, the binding result [12] was “binds” and the EC50 (read off the curve) [13] was 0.1 µg/mL.

B2: single domain antibody AHP16026 (Fc fusion)
chain: QVQLVESGGGLVQPGGSLRLSCAVLGSIEQINDINYYRWYRQPPGKQRDLVASINNSGELIYADSVKGRFFISRDKYTVYLEMRSLKAEDTAVYYCNAQDRGEYWGRGTQVTVSS
notes: as for B1
An EC50 [14] of 1.91 µg/mL was found for B2 in this work.

B3: single domain antibody AHP15580 (Fc fusion)
chain: QVQLVESGGGVVQPGGSLRLSCAASGFVLRVNTVSWYRQAPGKQRELVALITSESNEYYDDSVKGRFTISRDNAKNTIYLHMNSLKPEDTGVYFCNFITTWGQGTQVTVSS
notes: as for B1
In the case of B3, the EC50 [11] is reported as 0.0407 µg/mL, the EC50 [14] is reported as 0.0294 µg/mL and the binding result [12] is reported as “binds”.
